Laboratory results from patent US20240189351A1 (US Dept. of Health and Human Services, published 2024).

Target: T1, recombinant human IL-13Rα2Fc chimera protein (R&D) (human, UniProt Q14627 27-343, biotinylated (sulfo-NHS-biotin) in the immunofluorescence assay only)
T1 construct: Bought protein (R&D); It was used biotinylated in the IFA and unlabelled in the migration assay; also called huIL-13Rα2Fc chimeric protein; HuIL-13Rα2Fc; Fc part of the bought chimera not given
T1 sequence (looked up): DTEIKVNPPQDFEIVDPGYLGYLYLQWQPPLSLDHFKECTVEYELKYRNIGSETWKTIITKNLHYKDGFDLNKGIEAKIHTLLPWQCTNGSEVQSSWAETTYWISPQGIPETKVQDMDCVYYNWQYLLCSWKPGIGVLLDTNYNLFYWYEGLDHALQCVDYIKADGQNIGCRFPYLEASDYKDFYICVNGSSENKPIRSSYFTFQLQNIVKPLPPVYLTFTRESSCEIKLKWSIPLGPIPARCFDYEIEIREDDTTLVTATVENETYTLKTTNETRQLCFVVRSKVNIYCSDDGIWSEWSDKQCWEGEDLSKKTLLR
Assay: method not stated; affinity for recombinant IL-13Rα2Fc compared with the previously cloned scFv

fold higher binding affinity compared to the previously cloned scFv ECD-IL-13Rα2 (Kioi et al. 2008): > 4 fold
B1: IL-13Rα2 scFv (improved scFv-IL-13Rα2) (scFv)
scFv: QVQLVQSGAEVKKPGASVKVSCKASGYTFTSYAMHWVRQAPGQRLEWMGWINAGNGNTKYSQKFQGRVTITRDTSASTAYMELSSLRSEDTAVYYCARMNHMIPLKAWGQGTLVTVSSGGGGSGGGGSGGSALAIQMTQSPSSLSASVGDRVTITCRASQGIRNDLGWYQQKPGKAPKLLIYAASSLQSGVPSRFSGSGSGTDFTLTISSLQPEDFATYYCLQMYNYRTFGQGTKLEIKRA
notes: also called clone derived protein
